According to publication PMC5589886:

Columns and labels:
[1] = biological target: relaxin family peptide receptor-1 (human) (UniProt Q9HBX9)
[2] = biological target: relaxin family peptide receptor-1 (human) (UniProt Q9HBX9); remark: listed apart in the source
[3] = biological target: relaxin family peptide receptor-1 (human) (UniProt Q9HBX9); remark: listed apart in the source

UniProt Q9HBX9, sequence (Q9HBX9 whole entry): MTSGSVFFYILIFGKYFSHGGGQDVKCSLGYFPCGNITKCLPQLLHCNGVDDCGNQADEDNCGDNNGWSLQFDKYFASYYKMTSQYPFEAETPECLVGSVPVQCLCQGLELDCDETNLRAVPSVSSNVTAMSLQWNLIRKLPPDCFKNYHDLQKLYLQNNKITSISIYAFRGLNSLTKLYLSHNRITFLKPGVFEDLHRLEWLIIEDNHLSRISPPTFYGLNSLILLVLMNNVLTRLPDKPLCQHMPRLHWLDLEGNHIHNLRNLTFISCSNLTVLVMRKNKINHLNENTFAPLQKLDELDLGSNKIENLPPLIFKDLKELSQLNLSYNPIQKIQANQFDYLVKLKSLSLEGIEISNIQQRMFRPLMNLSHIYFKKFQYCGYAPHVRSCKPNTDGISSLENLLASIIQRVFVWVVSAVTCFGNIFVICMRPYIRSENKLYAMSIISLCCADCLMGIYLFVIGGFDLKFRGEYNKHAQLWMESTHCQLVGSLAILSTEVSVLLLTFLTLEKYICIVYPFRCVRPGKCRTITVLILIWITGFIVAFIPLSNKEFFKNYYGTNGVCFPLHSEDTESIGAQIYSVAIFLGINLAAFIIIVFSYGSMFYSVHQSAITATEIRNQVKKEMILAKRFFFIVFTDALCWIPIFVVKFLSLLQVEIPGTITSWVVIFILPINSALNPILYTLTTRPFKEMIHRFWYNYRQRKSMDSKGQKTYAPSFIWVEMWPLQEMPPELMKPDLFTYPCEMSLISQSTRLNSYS

human relaxin-2 (ligand)
cAMP generation (TR-FRET Lance cAMP immunoassay), mean pEC50 of H2-RLX in HEK293 cells transduced with RXFP1 BacMam at 0.5%, 5% and 10% v/v (pEC50 9.7, 10.2 and 11.3) [1]: 11.3 pEC50 | cAMP response of LX-2 cells (endogenous RXFP1) to 60 min H2-RLX after 40 h culture on plastic, mean pEC50 (n = 7) [2]: 9.1 pEC50 | cAMP response of primary hHSCs (endogenous RXFP1) to 60 min H2-RLX after 40 h culture, mean pEC50 across three patient samples [2]: 9 pEC50 | cAMP response, representative H2-RLX dose response in LX-2 cells (endogenous RXFP1), pEC50 [3]: 8.8 pEC50 | cAMP response, representative H2-RLX dose response in hHSCs (endogenous RXFP1), pEC50 [3]: 9.3 pEC50
